Source: paper PMC11908824, “UGT74B5-mediated glucosylation at ortho hydroxyl groups of benzoic acid derivatives regulating plant immunity to anthracnose in tea plants” (Horticulture Research, 2025)

Legend:
[1] = substrate: O=C(O)c1ccccc1O; assay: LC-MS glucosyltransferase assay; assay type: biochemical, Camellia sinensis; conditions: 2.5 mM UDP-glucose, optimal conditions (pH 8.0-8.5, 30°C), 0-300 μM substrate
[2] = substrate: O=C(O)c1c(O)cccc1O; assay: LC-MS glucosyltransferase assay; assay type: biochemical, Camellia sinensis; conditions: 2.5 mM UDP-glucose, optimal conditions (pH 8.0-8.5, 30°C), 0-300 μM substrate

B1: CsUGT74B5 (rCsUGT74B5) (Camellia sinensis) (protein)
chain: MEQRNHGGHVVVLPYPSQGHINPLLQFAKRLASKGVKATLATTHYTVKSICVPNIAVEPISDGFDNGGFTQARAEDVYLKSLRENGSRTLSQLIEKHKNTNFPINCVVYDSFFPWALDVAKTHGIYGAPFFTNSATVCAIFCHVHHGLVKLPVKVEELPLVLPGIPPLNLVDLPSFVQAPESYPAYLAMKLSQYSNLDKADWVFGNTFEELEGEAVKNVLELWPGKMIGPMVPSAYLDGRIEEDKGYGASLWKPLSSDCAKWLEAKPSQSVVYVSFGSMVSLTEEQMEEMAWGLKGSNLDFIWVVRESEITKLPSEFTNSTAQEKGLIVTWCNQLEMLAHQAIGCFVTHCGWNSTLEGLSLGVPMVGVPKWTDQLTDAKFIEEIWGVGFRAKEDEKGVVRREELMGCLKEVMEGERSVEIRKNCCKWKELAKEAISEGGSSDKSIDEFVEQLKSGNEKGVVKYLTNGNGHY
notes: full CDS in pMAL-c2X (N-terminal MBP fusion, tag cleavage not mentioned), expressed in E. coli Novablue (DE3), amylose resin purified
Work on B1 yielded a Km [1] of 42.01 µM and a Km [2] of 15.26 µM.
